# Experimental data reported in US10648979B2, “Molecular probes for detecting gram-negative bacteria in vitro and in vivo” (priority 2014, dated 2020).
# Bridge positions count the residues as written; N and C are the ends. Square brackets hold non-standard residues; d marks the D form. Peptide text beside a SMILES is read from it. * marks the point of attachment. ξ: configuration not given here. NBD = O=[N+]([O-])c1ccc(*)c2nonc12; dDab = NCC[C@@H](N)C(=O)O; Dab = NCC[C@H](N)C(=O)O; AEEA = NCCOCCOCC(=O)O; ξDab = NCCC(N)C(=O)O
# Key:
# [1] = Rodent single dose intratracheal toxicity assessment; assay type: in vivo, Mice; parameters: Creatinine / Bilirubin / Albumin: unit not given here
# [2] = system: bacteria over lung surfactant constituents; test: Bacterial labelling in the presence of lung surfactant constituents (confocal); assay type: cell-based
# Experimental: Ratio of bacterial fluorescence intensity:surfactant fluorescent intensity quantified from confocal microscopy images.
# In vitro experiments were conducted using lung surfactant constituents to investigate the ability of probes to preferentially detect bacteria in the presence of large amounts of surfactant. […] A suspension of surfactant constituents in buffered saline was prepared (20 mg/ml, 65% dipalmitoylphosphatidylcholine, 30% phosphatidylglycerol, 5% palmitic acid with 1 mg/ml tyloxapol as a spreading agent) and incubated with and without A549 epithelial cell monolayer.
# Surfactant 5 μg 1,2-Dipalmitoyl-sn-glycero-3-phosphocholine (DPPC) and 2.5 μg L-α-Phosphatidyl-DL-glycerol sodium salt (from egg yolk lecithin; PG) were dissolved in 500 μl chloroform and evaporated under nitrogen to a thin lipid film in a round bottom flask. The lipid film was rehydrated with PBS at 48° C. for 1 hour with agitation (750 rpm) to generate multilammelar vesicles (MLV). These were diluted 1:4 for use in confocal experiments.
# [3] = Stability in saline or BALF from patients with Acute Lung Injury (MALDI-TOF / FTMS); conditions: incubated for 30 minutes
# Experimental: FIG. 16: NBD-UBIdend is stable in ALI BALF. […] NBD-PMX is stable in ALI BALF.
# Secondly we assessed stability of the probes in broncholalveolar lavage fluid (BALF) from patients with Acute Lung Injury (ALI) by Fourier Transform Mass Spectrometry (FTMS) and Matrix-Assisted Laser Desorption/Ionization Time-of-Flight Mass Spectrometry (MALDI-TOF MS) analysis. NBD-UBINle, NBD-UBIdend and NBD-PMX were incubated for 30 minutes with BALF (FIG. 16).
# (§1) In vitro labelling was assessed on benchtop confocal in the presence of compound with bacteria and labelling was compared to NBD-UBINle which served as a reference control for bacterial labelling. […] For the ex vivo and in vivo ovine lung experiments each compound was assessed in a control lung segment (instilled with 2 ml PBS) or a bacterial segment (instilled with 2 ml of 2 optical density of bacteria). Following bacterial instillation, the compound was administered to the segment of interest and this was imaged by probe based confocal laser endomicroscopy (FCFM).
# Probe was added to saline or pooled BALF from patients with ALI incubated for 30 minutes. A ZipTip (C-18, 0.2 μL) with 5 μL MeCN (with 0.1% TFA as an additive) followed by 20 μL of H2O was washed. The ZipTip was loaded with the sample, washed and eluted into 5 μL of 80% aq. MeCN (with 0.1% TFA as an additive). The sample was analysed by MALDI-TOF (PerSeptive Biosystems Voyager DETMSTR MALDI-TOF mass spectrometer (Applied Biosystems, Foster City, Calif.)).
# [4] = Emission spectra of probes in PBS or DMSO (hydrophobic environment); assay type: physicochemical; conditions: excited at 488 nm; NBD-UBIdend 5 μM, NBD-UBINle 15 μM, NBD-PMX 10 μM
# Experimental: A) Emission spectra shown for NBD-UBIdend (5 μM) and NBD-UBINle (15 μM) in the presence of PBS or DMSO (hydrophobic environment) when excited at 488 nm wavelength. B) Emission spectra shown for NBD-PMX (10 μM) in the presence of PBS or DMSO (hydrophobic environment) when excited at 488 nm wavelength. The fluorescence of both probes greatly increases under hydrophobic conditions as would be present upon binding to the bacterial membrane target.
# To confirm the fluorescent reporter NBD retains its characteristics when coupled with our peptide moieties we measured the fluorescence of the compounds in conditions to mimic a hydrophobic environment (DMSO).
# bacterial panel = test: Retention of labelling upon wash-off (PBS wash) in vitro by confocal; assay type: cell-based
# Text: FIG. 15: NBD-UBIdend retains fluorescence when wash performed. A) The bacterial panel was imaged by laser scanning confocal microscopy in the continued presence of NBD-UBIdend (black) and following PBS wash (white).
# (§2) In the distal lung, there is likely to be significant and rapid dissipation of the probes immediately after delivery. Therefore, it is imperative that probe-bacterial labelling remains persistent under these conditions. […] As such, this resistance to ‘wash-off’ represents a surrogate indicator of probe-bacterial affinity which appears to be an absolute requirement for distal lung in situ labelling.
# We have obtained evidence that the wash-off properties of the probes, most likely related to affinity and/or the nature of subsequent insertion into the bacterial membrane, impact on whether or not they can be used to successfully image in the lung. The retention of labelling upon removal of probe solution was investigated in vitro by confocal. With all of the linear UBI variants labelling was lost completely upon wash-off. […] Bacteria were pre-labelled with these linear NBD-UBINle compounds and successful labelling was confirmed by imaging the bacterial suspension pre-instillation.
# [5] = system: panel of bacteria (P. aeruginosa, A. baumannii, S. maltophilia, K. pneumoniae, E. coli, H. influenzae, MRSA, MSSA, S. pneumoniae); test: In vitro labelling of bacteria by laser scanning confocal microscopy; assay type: cell-based
# Experimental: as §1
# [6] = system: pre-labelled bacteria in ovine lung; test: Pre-labelled bacteria instilled into the ovine lung and imaged by FCFM
# Text: FIG. 14: NBD-UBIdend and NBD-PMX are resistant to ‘wash off’ allowing detection of bacteria in the ovine lung. […] However, when bacteria pre-labelled with linear NBD-UBINle are instilled, no punctate signal is seen. Labelling was confirmed by imaging bacterial suspensions (left hand panels) before instillation into the lung and imaging by FCFM (right hand panels). Note the lower SNR for NBD-UBINle labelled bacteria in suspension. Representative images shown, n=3 for each experiment.
# as §2
# We have obtained evidence that the wash-off properties of the probes, most likely related to affinity and/or the nature of subsequent insertion into the bacterial membrane, impact on whether or not they can be used to successfully image in the lung. The retention of labelling upon removal of probe solution was investigated in vitro by confocal. With all of the linear UBI variants labelling was lost completely upon wash-off. […]
# human neutrophils = test: Labelling of isolated human neutrophils (confocal); assay type: cell-based
# Experimental: All compounds have undergone biological assessment.
# Bacteria were prepared and counterstained with Syto 82 nucleic acid stain (Invitrogen, Calif., USA) in a shaking heat block at 37° C. and 350 rpm for 20 minutes. They were co-incubated with the probe at required concentration in a sealed POC mini chamber, or 8 well confocal chamber. When required the glass coverslip for the POC chamber was coated in fibronectin (for neutrophil experiments) or poly-d-lysine (for bacteria and cell lines) and incubated with cells with one hour at 37° C. to allow adherence prior to bacterial innoculation. Analysis was with ImageJ. Briefly, the Syto channel was automatically thresholded (Huang) and an ROI generated from this. The mean fluorescence intensity on the probe channel within this ROI was quantified. Data presented represents the mean of three separate fields of view.
# [7] = system: bacteria on human lung tissue; test: Detection of bacteria in the presence of human lung tissue autofluorescence (FCFM, confocal, FLIM); conditions: FCFM and benchtop confocal
# Text: FIG. 21: Bacteria detected in the presence of human lung tissue autofluorescence. […] B) Live confocal microscopy images (merge) showing merge images of nucleic acid counterstain (red) with no NBD-PMX labelling. Bacteria in right panel can be clearly seen, labelled with NBD-PMX and above the background fluorescence.
# FIG. 24: Fluorescence Life Time Imaging easily distinguishes lung tissue from bacteria. […] Imaging performed using NBD-UBIdend and S. aureus on human lung tissue.
# human erythrocytes = test: Haemolysis assay; conditions: up to 100 μM; 0.2% Triton-X = 100%
# Experimental: Positive control was 0.2% Triton-X and values corrected to represent 100% haemolysis for Triton-X.
# Erythrocytes were isolated from freshly drawn, anticoagulated human blood and resuspended to 20 vol % in PBS (pH 7.4). In a 96-well microtiter plate, 100 μl of erythrocyte suspension was added to 100 μl of NLLP solution in PBS (prepared by 1:2 serial dilutions) or 100 μl of PBS in the case of negative controls. One-hundred percent haemolysis wells contained 100 μl of red cell suspension with 100 μl of 0.2 vol % Triton X-100. The plate was incubated for 1 h at 37° C., and then each well was diluted with 150 μl of PBS. The plate was then centrifuged at 1,200 g for 15 min, 100 μl of the supernatant from each well was transferred to a fresh microtiter plate, and A350 was measured. Percentage of haemolysis was determined as (A−A0)/(Atotal−A0)×100, where A is the absorbance of the test well, A0 the absorbance of the negative controls, and Atotal the absorbance of 100% haemolysis wells, all at 350 nm on a Biotek plate reader.
compound,measurement,setting,value
CC(C)C[C@@H]1NC(=O)[C@@H](Cc2ccccc2)NC(=O)[C@@H](CCN)NC(=O)C(NC(=O)[C@H](CCN)NC(=O)[C@@H](NC(=O)COCCOCCNc2ccc([N+](=O)[O-])c3nonc23)[C@@H](C)O)CCNC(=O)[C@@H]([C@H](C)O)NC(=O)[C@H](CCN)NC(=O)[C@H](CCN)NC1=O (some centres unmarked) [NBD-PMX] ({NBD-AEEA}-T[Dab][ξDab][dDab][dF]L[Dab][Dab][dT]; lactam 3-C),ALP,[1]; 48 hours,107.7 ± 17.3 u/l
same,ALT,[1]; 48 hours,36.0 ± 9.0 u/l
same,Albumin,[1]; 48 hours,23.7 ± 0.3
same,BALF,[1]; 48 hours,509.0 ± 270.2 Cells/ul
same,Bilirubin,[1]; 48 hours,1.2 ± 0.4
same,Creatinine,[1]; 48 hours,16.3 ± 8.8
same,Cytospin (% of Neutrophils),[1]; 48 hours,0%
same,Cytospin (% of Red Blood Cells),[1]; 48 hours,3.9%
same,PenH value,[1]; 48 hours,0.5 ± 0.05
same,Cytospin (% of Mononuclear cells),"[1]; 48 hours, single intratracheal 100 μg/25 g mouse",96.1%
same,ALP,[1]; 14 days,126.3 ± 8.5 u/l
same,ALT,[1]; 14 days,40.3 ± 4.8 u/l
same,Albumin,[1]; 14 days,25.3 ± 0.7
same,BALF,[1]; 14 days,542.0 ± 84.7 Cells/ul
same,Bilirubin,[1]; 14 days,1.2 ± 0.4
same,Creatinine,[1]; 14 days,9.7 ± 0.3
same,Cytospin (% of Neutrophils),[1]; 14 days,0%
same,Cytospin (% of Red Blood Cells),[1]; 14 days,2.3%
same,PenH value,[1]; 14 days,0.5 ± 0.07
same,Cytospin (% of Mononuclear cells),"[1]; 14 days, single intratracheal 100 μg/25 g mouse",93.0%
same,organ toxicity (histology),"[1]; single instillation, 48 hours and 14 days, compared to PBS control",no organ toxicity
same,toxicity,"[1]; single intratracheal 100 μg/25 g mouse, 48 hours and 14 days",no toxicity
same,selectivity for bacterial labelling over lung surfactant constituents,[2],possess selectivity for bacterial labelling over lung surfactant constituents
same,bacterial:surfactant fluorescence intensity compared with linear NBD-UBINle,[2]; equimolar NBD concentrations,significantly higher bacterial: surfactant intensity than NBD-UBInle
same,stability in ALI BALF,[3],demonstrate stability
same,stability in saline,[3],readily identified in both saline and BALF incubated samples
same,fluorescence in DMSO compared to PBS,[4],significant increase in fluorescence
same,retention of labelling upon wash-off,bacterial panel,resistant to wash-off
same,labelling of Gram-positive bacteria,[5]; 1 μM,minimal/no labelling
same,fluorescence on Gram-negative versus Gram-positive bacteria,"[5]; 1 μM, p<0.05",significantly higher fluorescence on Gram-negative bacteria
same,bacterial labelling,[5]; Pseudomonas aeruginosa (PA) incubated with A549 cells,allows bacterial labelling
same,detection of pre-labelled bacteria after instillation,[6],readily visualised
same,labelling of human neutrophils,human neutrophils,no labelling of human neutrophils or A549 cells
same,detection of bacteria above human lung autofluorescence,[7],demonstrating bacterial signal
same,red cell haemolysis,human erythrocytes,no red cell haemolysis
